Here are results for one molecule from publication PMC4357725 (Nucleic Acids Research, 2015).

The assay addresses T1, ϕ29 DNA polymerase, wild type (bacteriophage ϕ29, UniProt P03680 1-575).
T1 construct: DNA polymerase of bacteriophage ϕ29, wild type; 66 kDa; also called viral DNA polymerase
T1 sequence (looked up): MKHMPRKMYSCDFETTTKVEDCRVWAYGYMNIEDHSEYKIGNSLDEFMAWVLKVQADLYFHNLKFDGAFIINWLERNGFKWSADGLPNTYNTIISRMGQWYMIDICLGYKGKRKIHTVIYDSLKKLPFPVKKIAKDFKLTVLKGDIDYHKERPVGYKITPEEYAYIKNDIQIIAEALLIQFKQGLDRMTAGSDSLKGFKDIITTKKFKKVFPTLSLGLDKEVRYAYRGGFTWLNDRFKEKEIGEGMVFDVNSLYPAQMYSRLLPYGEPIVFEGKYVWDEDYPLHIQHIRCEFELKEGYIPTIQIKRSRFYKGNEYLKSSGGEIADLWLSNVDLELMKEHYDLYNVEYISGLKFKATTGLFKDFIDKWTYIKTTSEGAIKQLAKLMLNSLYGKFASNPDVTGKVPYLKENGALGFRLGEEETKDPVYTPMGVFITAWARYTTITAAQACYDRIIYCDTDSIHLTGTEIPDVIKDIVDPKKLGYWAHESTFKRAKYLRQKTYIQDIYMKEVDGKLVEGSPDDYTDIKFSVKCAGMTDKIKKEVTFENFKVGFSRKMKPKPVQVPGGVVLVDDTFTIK
In words: co-sedimentation; glycerol gradient sedimentation of DNA polymerase with TP N-terminal mutants (Supplementary Figure S2). Conditions: both partners purified.

B1: ϕ29 TP mutant K32A/K33A/K34A (natural protein, bacteriophage ϕ29, UniProt P03681 1-266, looked up)
chain: MARSPRIRIKDNDKAEYARLVKNTKAKIARTAAAYGVDLTAEIDIPDLDSFETRAQFNKWKEQASSFTNRANMRYQFEKNAYGVVASKAKIAEIERNTKEVQRLVDEKIKAMKDKEYYAGGKPQGTIEQRIAMTSPAHVTGINRPHDFDFSKVRSYSRLRTLEESMEMRTDPQYYEKKMIQLQLNFIKSVEGSFNSFDAADELIEELKKIPPDDFYELFLRISEISFEEFDSEGNTVENVEGNVYKILSYLEQYRRGDFDLSLKGF
notes: terminal protein (TP) of bacteriophage ϕ29 with K32A, K33A and K34A
Regarding B1, the binding result is “binds”.
